Experimental data taken from article PMC10355822.
Several values for one entry are separate records, joined by “and”; a condition that tells them apart may be missing. Equal values may be shown once.

Tests used:
[1] = target: M. polysiphoniae SPARTA (MapSPARTA) complex of MapAgo and MapTIR-APAZ (Maribacter polysiphoniae); assay: mass photometry
[2] = target: M. polysiphoniae SPARTA (MapSPARTA) complex of MapAgo and MapTIR-APAZ (Maribacter polysiphoniae); assay: cryo-EM structure
[3] = target: M. polysiphoniae SPARTA (MapSPARTA) complex of MapAgo and MapTIR-APAZ (Maribacter polysiphoniae); assay: cryo-EM structure; remark: listed apart in the source

- stoichiometry N [1]: 2 and 4
- stoichiometry N [2]: 2
- stoichiometry N [3]: 4
Substance: M. polysiphoniae SPARTA (MapSPARTA) complex of MapAgo and MapTIR-APAZ
